B1: Antibody-drug conjugate 1: 900698 antibody cysteine-conjugated to SN-38 via Mc-VC-PAB-DMEDA-PEG linker, DAR about 7.8 (conjugate)
VH: QVQLVESGGGLVKPGGSLRLSCAASGFTFSKYAMSWIRQAPGKGLEWVAEISSGGGYINYADSVKGRFTISRDNAKNSLYLQMNSLRAEDTAVYYCARAIYYYGSSYNYYAMDYWGQGTTVTVSS
VL: DIQMTQSPSSLSASVGDRVTITCRASQDVGTAEAWYQQKPGKAPKLLIYWASTRHTGVPSRFSGSGSGTDFTLTISSLQPEDFATYYCQQYSSYPLTFGQGTKLEIK
B2: Antibody-drug conjugate 2: 900698 antibody cysteine-conjugated to SN-38 via MP2-VC-PAB-DMEDA-PEG linker, DAR about 7.8 (conjugate)
VH: B1 VH
VL: B1 VL

Molecular target: T1, CD73 on the cell surface of Calu6 cells (Homo sapiens, UniProt P21589)
T1 construct: endogenous in cells; host or cells: Calu6
T1 sequence (P21589 27-549): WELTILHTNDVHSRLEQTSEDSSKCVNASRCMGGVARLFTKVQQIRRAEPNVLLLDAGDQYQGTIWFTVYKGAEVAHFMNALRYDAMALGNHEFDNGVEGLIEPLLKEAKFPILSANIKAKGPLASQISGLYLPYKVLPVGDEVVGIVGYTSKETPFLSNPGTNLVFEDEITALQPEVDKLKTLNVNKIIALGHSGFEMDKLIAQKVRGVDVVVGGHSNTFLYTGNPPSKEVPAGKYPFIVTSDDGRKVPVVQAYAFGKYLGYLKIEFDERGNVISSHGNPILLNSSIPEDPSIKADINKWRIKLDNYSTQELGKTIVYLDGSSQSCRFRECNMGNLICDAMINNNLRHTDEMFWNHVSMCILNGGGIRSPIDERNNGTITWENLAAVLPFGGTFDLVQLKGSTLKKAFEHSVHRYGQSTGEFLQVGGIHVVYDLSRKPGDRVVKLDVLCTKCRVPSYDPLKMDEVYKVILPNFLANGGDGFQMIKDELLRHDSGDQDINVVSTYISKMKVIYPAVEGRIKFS
Experiment: Induction of endocytosis of CD73 antigen on cell surface (Calu6 cells, flow cytometry)
Format: cell-based
Details: Example 5, 1 μg/mL, 5 h, 37° C. vs 4° C.
Procedure: The antibody-drug conjugate 1 and the antibody-drug conjugate 2 prepared in Example 1 and the 900698 naked antibody were diluted to 1 μg/mL with a PBS solution, with 2 replicate wells set up for each concentration. Calu6 cells in the logarithmic growth phase were taken and prepared into a cell suspension at 2×10^5 cells/mL. The cell suspension was then added at 100 μL (about 20000 cells) per well to a 96-well U-bottom plate and centrifuged at 300 g for 3 min, and then the supernatant was discarded. Then, the diluted antigen-binding proteins were each added at 100 μL/well to resuspend the cells, and the mixture was mixed uniformly and incubated at 4° C. for 30 min. […] After the incubation was completed, the cells were washed twice and centrifuged at 300 g for 3 min, and the fluorescence intensity was detected by flow cytometry.
The endocytosis efficiency of monoclonal antibodies 900698 and 900725 was compared through an endocytosis assay, with the procedures as follows: Anti-CD73 antigen-binding proteins such as the CD73 positive control antibody BMS-986179, 900698, and 900725 were diluted to 1 μg/mL with a PBS solution, with 2 replicate wells set up for each concentration. […] After the incubation was completed, the cells were washed twice and centrifuged at 300 g for 3 min, and the fluorescence intensity was detected by flow cytometry. […]

Molecule	Endocytosis efficiency (%)
B1	about 95%
B2	about 95%

From patent publication US20250195679A1, “ANTIBODY-DRUG CONJUGATE AND USE THEREOF” (SHANGHAI HUAOTA BIOPHARMACEUTICAL CO., LTD., priority 2022, published 2025)
